Data from paper PMC3249085 (The Journal of Biological Chemistry, 2011).

Target: the molecule itself
Assay: small angle neutron scattering

B1: outer membrane protein OmpF (receptor)
chain: AEIYNKDGNKVDLYGKAVGLHYFSKGNGENSYGGNGDMTYARLGFKGETQINSDLTGYGQWEYNFQGNNSEGADAQTGNKTRLAFAGLKYADVGSFDYGRNYGVVYDALGYTDMLPEFGGDTAYSDDFFVGRVGGVATYRNSNFFGLVDGLNFAVQYLGKNERDTARRSNGDGVGGSISYEYEGFGIVGAYGAADRTNLQEAQPLGNGKKAEQWATGLKYDANNIYLAANYGETRNATPITNKFTNTSGFANKTQDVLLVAQYQFDFGLRPSIAYTKSKAKDVEGIGDVDLVNYFEVGATYYFNKNMSTYVDYIINQIDSDNKLGVGSDDTVAVGIVYQF
modifications: partially deuterated (d-OmpF) in the SANS samples; hydrogenous or deuterated in the neutron reflection samples
  stoichiometry N: 3
